Experiments:
Details in all cases: remark: other sources report otherwise
[1] = biological target: hMPV A F WT Control (hMPV A), Q6WB98; experiment: BLI, no stress
hMPV080 (hMPV A), Q6WB98 = experiment: BLI, no stress
hMPV043 (hMPV A), Q6WB98 [2] = experiment: BLI, 50C stress
hMPV045 (hMPV A), Q6WB98 [3] = experiment: BLI, 50C stress
hMPV046 (hMPV A), Q6WB98 = experiment: BLI, 50C stress
hMPV047 (hMPV A), Q6WB98 = experiment: BLI, 50C stress
hMPV049 (hMPV A), Q6WB98 [4] = experiment: BLI, 50C stress
hMPV050 (hMPV A), Q6WB98 = experiment: BLI, 50C stress
hMPV055 (hMPV A), Q6WB98 [5] = experiment: BLI, 50C stress
hMPV061 (hMPV A), Q6WB98 = experiment: BLI, 50C stress
hMPV062 (hMPV A), Q6WB98 = experiment: BLI, 50C stress
hMPV066 (hMPV A), Q6WB98 [6] = experiment: BLI, 50C stress
hMPV067 (hMPV A), Q6WB98 = experiment: BLI, 50C stress
hMPV068 (hMPV A), Q6WB98 = experiment: BLI, 50C stress
hMPV075 (hMPV A), Q6WB98 [7] = experiment: BLI, 50C stress
hMPV077 (hMPV A), Q6WB98 [8] = experiment: BLI, 50C stress
hMPV043 (hMPV A), Q6WB98 [9] = experiment: BLI, 53C stress
hMPV044 (hMPV A), Q6WB98 = experiment: BLI, 53C stress
hMPV045 (hMPV A), Q6WB98 [10] = experiment: BLI, 53C stress
hMPV049 (hMPV A), Q6WB98 [11] = experiment: BLI, 53C stress
hMPV052 (hMPV A), Q6WB98 = experiment: BLI, 53C stress
hMPV054 (hMPV A), Q6WB98 = experiment: BLI, 53C stress
hMPV055 (hMPV A), Q6WB98 [12] = experiment: BLI, 53C stress
hMPV058 (hMPV A), Q6WB98 = experiment: BLI, 53C stress
hMPV059 (hMPV A), Q6WB98 = experiment: BLI, 53C stress
hMPV063 (hMPV A), Q6WB98 = experiment: BLI, 53C stress
hMPV066 (hMPV A), Q6WB98 [13] = experiment: BLI, 53C stress
hMPV069 (hMPV A), Q6WB98 = experiment: BLI, 53C stress
hMPV075 (hMPV A), Q6WB98 [14] = experiment: BLI, 53C stress
hMPV077 (hMPV A), Q6WB98 [15] = experiment: BLI, 53C stress
[16] = biological target: hMPV A F WT Control (hMPV A), Q6WB98; experiment: BLI, 58C stress
hMPV078 (hMPV A), Q6WB98 = experiment: BLI, 58C stress
hMPV079 (hMPV A), Q6WB98 = experiment: BLI, 58C stress
hMPV081 (hMPV A), Q6WB98 = experiment: BLI, 58C stress
hMPV082 (hMPV A), Q6WB98 = experiment: BLI, 58C stress
hMPV083 (hMPV A), Q6WB98 = experiment: BLI, 58C stress
hMPV084 (hMPV A), Q6WB98 = experiment: BLI, 58C stress
hMPV085 (hMPV A), Q6WB98 = experiment: BLI, 58C stress
hMPV086 (hMPV A), Q6WB98 = experiment: BLI, 58C stress
hMPV087 (hMPV A), Q6WB98 = experiment: BLI, 58C stress
hMPV088 (hMPV A), Q6WB98 = experiment: BLI, 58C stress
hMPV089 (hMPV A), Q6WB98 = experiment: BLI, 58C stress
hMPV090 (hMPV A), Q6WB98 = experiment: BLI, 58C stress
hMPV097 (hMPV A), Q6WB98 = experiment: BLI, 58C stress

B1: MPE8 mAb (antibody, V domains shown)
VH: EVQLVESGGGLVKPGGSLRLSCAASGFTFSSYSMNWVRQAPGKGLEWVSSISASSSYSDYADSAKGRFTISRDNAKTSLFLQMNSLRAEDTAIYFCARARATGYSSITPYFDIWGQGTLVTVSS
VL: QSVVTQTPSVSGAPGQRVTISCTGSSSNIGAGYDVHWYQQLPGTAPKLLIYDNNNRPSGVPDRFSASKSGTSASLAITGLQAEDEADYYCQSYDRNLSGVFGTGTKVTVL
Response Shift [1]: 0.102 nm | Response Shift (hMPV080 (hMPV A), Q6WB98): 0.787 nm | Response Shift (hMPV043 (hMPV A), Q6WB98 [2]): 0.501 nm | Response Shift (hMPV045 (hMPV A), Q6WB98 [3]): 0.139 nm | Response Shift (hMPV046 (hMPV A), Q6WB98): 0.412 nm | Response Shift (hMPV047 (hMPV A), Q6WB98): -0.024 nm | Response Shift (hMPV049 (hMPV A), Q6WB98 [4]): 0.343 nm | Response Shift (hMPV050 (hMPV A), Q6WB98): 0.14 nm | Response Shift (hMPV055 (hMPV A), Q6WB98 [5]): 0.098 nm | Response Shift (hMPV061 (hMPV A), Q6WB98): 0.537 nm | Response Shift (hMPV062 (hMPV A), Q6WB98): 0.253 nm | Response Shift (hMPV066 (hMPV A), Q6WB98 [6]): 0.666 nm | Response Shift (hMPV067 (hMPV A), Q6WB98): 0.571 nm | Response Shift (hMPV068 (hMPV A), Q6WB98): 0.194 nm | Response Shift (hMPV075 (hMPV A), Q6WB98 [7]): 0.506 nm | Response Shift (hMPV077 (hMPV A), Q6WB98 [8]): 0.472 nm | Response Shift (hMPV043 (hMPV A), Q6WB98 [9]): 0.01 nm | Response Shift (hMPV044 (hMPV A), Q6WB98): 0.534 nm | Response Shift (hMPV045 (hMPV A), Q6WB98 [10]): -0.025 nm | Response Shift (hMPV049 (hMPV A), Q6WB98 [11]): -0.065 nm | Response Shift (hMPV052 (hMPV A), Q6WB98): -0.045 nm | Response Shift (hMPV054 (hMPV A), Q6WB98): -0.064 nm | Response Shift (hMPV055 (hMPV A), Q6WB98 [12]): -0.078 nm | Response Shift (hMPV058 (hMPV A), Q6WB98): -0.05 nm | Response Shift (hMPV059 (hMPV A), Q6WB98): -0.039 nm | Response Shift (hMPV063 (hMPV A), Q6WB98): -0.008 nm | Response Shift (hMPV066 (hMPV A), Q6WB98 [13]): -0.003 nm | Response Shift (hMPV069 (hMPV A), Q6WB98): -0.003 nm | Response Shift (hMPV075 (hMPV A), Q6WB98 [14]): -0.069 nm | Response Shift (hMPV077 (hMPV A), Q6WB98 [15]): -0.041 nm | Response Shift [16]: 0.006 nm | Response Shift (hMPV078 (hMPV A), Q6WB98): 0.939 nm | Response Shift (hMPV079 (hMPV A), Q6WB98): 0.867 nm | Response Shift (hMPV081 (hMPV A), Q6WB98): 0.945 nm | Response Shift (hMPV082 (hMPV A), Q6WB98): 0.928 nm | Response Shift (hMPV083 (hMPV A), Q6WB98): 0.768 nm | Response Shift (hMPV084 (hMPV A), Q6WB98): 0.665 nm | Response Shift (hMPV085 (hMPV A), Q6WB98): 0.757 nm | Response Shift (hMPV086 (hMPV A), Q6WB98): 0.736 nm | Response Shift (hMPV087 (hMPV A), Q6WB98): 0.805 nm | Response Shift (hMPV088 (hMPV A), Q6WB98): 0.812 nm | Response Shift (hMPV089 (hMPV A), Q6WB98): 0.917 nm | Response Shift (hMPV090 (hMPV A), Q6WB98): 0.906 nm | Response Shift (hMPV097 (hMPV A), Q6WB98): 0.918 nm

Reference: patent US20240252614A1
